This data set concerns Arabidopsis thaliana T1 plants. Description: Mesotrione tolerance of transgenic Arabidopsis thaliana T1 plants (spray, bleached leaf area grade, damage score). In kind it is in vivo. Details: Scores: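 damage score 0-100 computed as Σ(N×S)/(T×M)×100 over grades 0-3 with higher meaning more damage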. The settings on record: Arabidopsis thaliana T1 plants; for Grade 0 (classification and statistics of the grade of pesticide damage; number of plants) / Grade 1 (classification and statistics of the grade of pesticide damage; number of plants) / Grade 2 (classification and statistics of the grade of pesticide damage; number of plants) / Grade 3 (classification and statistics of the grade of pesticide damage; number of plants): 16 plants. An excerpt:
T1 transformants were initially selected from the untransformed seeds using a glufosinate selection scheme. The Arabidopsis thaliana T1 plants (AsHPPD-02) into which the AsHPPD-02 nucleotide sequence was introduced, the Arabidopsis thaliana T1 plants (AsHPPDm-F372A-02) into which the AsHPPDm-F372A-02 nucleotide sequence was introduced, the Arabidopsis thaliana T1 plants (AsHPPDm-F383W-02) into which the AsHPPDm-F383W-02 nucleotide sequence was introduced, the Arabidopsis thaliana T1 plants (AsHPPDm-F372A-F383W-02) into which the AsHPPDm-F372A-F383W-02 nucleotide sequence was introduced, the Arabidopsis thaliana T1 plants (DBN11726N) into which the control recombinant expression vector DBN11726N was introduced, and the wild-type Arabidopsis thaliana plants (CK) (18 days after sowing) were sprayed respectively with topramezone at three concentrations (100 g ai/ha (four-fold field concentration, 4×), 200 g ai/ha (eight-fold field concentration, 8×), and 0 g ai/ha (water, 0×)), isoxaflutole at three concentrations (140 g ai/ha (two-fold field concentration, 2×), 280 g ai/ha (four-fold field concentration, 4×), and 0 g ai/ha (water, 0×)), and mesotrione at three concentrations (210 g ai/ha (two-fold field concentration, […]), 420 g ai/ha (four-fold field concentration, 4×), and 0 g ai/ha (water, 0×)), to determine the tolerance of Arabidopsis thaliana to the herbicides. The degree of damage caused by the herbicide was measured for each plant according to the proportion of bleached leaf area (the proportion of bleached leaf area=bleached leaf area/total leaf area×100%) 7 days after spraying (7 DAT): the case where there is basically no bleached phenotype is defined as grade 0, the case where the proportion of bleached leaf area is less than 50% is defined as grade 1, the case where the proportion of bleached leaf area is more than 50% is defined as grade 2, and the case where the proportion of bleached leaf area is 100% grade is defined as grade 3.
According to the method as described above in point 6 of Example 1, the aforementioned Arabidopsis thaliana T1 plants and wild-type Arabidopsis thaliana plants (CK) (18 days after sowing) were sprayed respectively with topramezone at three concentrations (25 g ai/ha (one-fold field concentration, 1×). 100 g ai/ha (four-fold field concentration, 4×), and 0 g ai/ha (water, 0×)), isoxaflutole at three concentrations (35 g ai/ha (half-fold field concentration, 0.5×). 70 g ai/ha (one-fold field concentration, 1×), and 0 g ai/ha (water, 0×)), and mesotrione at three concentrations (52.5 g ai/ha (half-fold field concentration, 0.5×), 105 g ai/ha (one-fold field concentration, 1×), and 0 g ai/ha (water, 0×)) to detect the tolerance of Arabidopsis thaliana to the herbicides.
According to the method as described above in point 6 of Example 1, the aforementioned Arabidopsis thaliana T1 plants and wild-type Arabidopsis thaliana plants (CK) (18 days after sowing) were sprayed with topramezone at three different concentrations (i.e., 100 g ai/ha (four-fold field concentration, 4×), 200 g ai/ha (eight-fold field concentration, 8×) and 0 g ai/ha (water, 0×)), isoxaflutole at three different concentrations (i.e., 140 g ai/ha (two-fold field concentration, 2×), 280 g ai/ha (four-fold field concentration, 4×) and 0 g ai/ha (water, 0×)), and mesotrione at three different concentrations (i.e., 210 g ai/ha (two-fold field concentration, 2×), 420 g ai/ha (four-fold field concentration, 4×) and 0 g ai/ha (water, 0×)) respectively to detect the herbicide tolerance of Arabidopsis thaliana. […]

Residue numbers refer to the chain shown, from its start. Names may count otherwise.

B1: PfHPPD-02: nucleotide sequence encoding wild-type Pseudomonas fluorescens HPPD; vector DBN11770 (nucleic acid)
DNA: ATGGCCGATTTGTACGAGAACCCAATGGGACTCATGGGTTTCGAGTTCATTGAGTTCGCTTCCCCCACCCCAGGTACTTTGGAGCCTATTTTCGAGATCATGGGCTTCACTAAGGTTGCCACACACAGGTCTAAGAATGTGCATCTCTACCGCCAAGGAGAGATTAACCTGATCCTTAACAATGAGCCTAATAGCATCGCCTCATACTTCGCTGCTGAGCATGGTCCATCTGTTTGCGGCATGGCTTTCAGAGTGAAGGATTCACAAAAGGCCTACAACAGGGCTTTGGAGCTCGGCGCCCAGCCCATTCATATCGACACCGGACCTATGGAGCTGAATCTTCCTGCCATTAAGGGCATCGGCGGAGCTCCATTGTACCTCATTGATCGCTTCGGCGAGGGCTCCTCTATCTACGATATCGACTTCGTGTACCTGGAGGGCGTTGAGAGAAACCCTGTGGGAGCTGGTCTGAAGGTTATCGACCACCTTACTCATAATGTTTACAGAGGAAGGATGGTGTACTGGGCCAACTTCTACGAGAAGCTGTTCAATTTCCGCGAGGCTAGATACTTCGATATTAAGGGCGAGTACACAGGACTTACCTCCAAGGCCATGTCTGCTCCCGACGGTATGATTAGGATCCCATTGAACGAGGAGAGCTCAAAGGGCGCCGGACAGATTGAGGAGTTCCTCATGCAATTCAATGGTGAAGGCATCCAGCACGTTGCTTTCCTGACAGATGACCTTGTGAAGACCTGGGATGCCCTCAAGAAGATTGGCATGAGGTTCATGACCGCTCCACCTGACACTTACTACGAGATGTTGGAGGGACGCCTCCCTGATCATGGCGAGCCCGTTGACCAGCTGCAAGCTAGAGGAATCCTCCTGGATGGTTCCTCTGTGGAGGGCGACAAGAGGCTTTTGCTCCAAATTTTCAGCGAGACTCTTATGGGACCCGTGTTCTTCGAGTTCATCCAGAGGAAGGGCGATGACGGATTCGGCGAGGGCAACTTCAAGGCCCTGTTCGAGTCTATTGAGAGAGATCAGGTGAGGCGCGGCGTTCTTACAGCTGACTGA
modifications: PfHPPD-02 Nucleotide Sequence
notes: vector DBN11770
Regarding B1, under “mesotrione 52.5 g ai/ha”, the Resistance evaluation result is on record as “Non-resistant”; the Scores was 100; the “Grade 0 (classification and statistics of the grade of pesticide damage; number of plants)” value is 0; the “Grade 1 (classification and statistics of the grade of pesticide damage; number of plants)” value was 0. Where the note is “mesotrione 52.5 g ai/ha”, the “Grade 2 (classification and statistics of the grade of pesticide damage; number of plants)” value stood at 0; the “Grade 3 (classification and statistics of the grade of pesticide damage; number of plants)” value is 16. Moreover, where the note is “mesotrione 105 g ai/ha”, the Resistance evaluation entry was “Non-resistant”; the Scores came out at 100; the “Grade 0 (classification and statistics of the grade of pesticide damage; number of plants)” value amounted to 0; the “Grade 1 (classification and statistics of the grade of pesticide damage; number of plants)” value was found to be 0. Under “mesotrione 105 g ai/ha”, the “Grade 2 (classification and statistics of the grade of pesticide damage; number of plants)” value is listed as 0; the “Grade 3 (classification and statistics of the grade of pesticide damage; number of plants)” value is reported as 16.

B2: PfHPPDm-F372A-F383W-02: nucleotide sequence encoding Pseudomonas fluorescens HPPD with F372A+F383W; vector DBN11773 (nucleic acid)
DNA: B1 DNA with T934G, T935C, C936T, T962G, C963G
modifications: PfHPPDm-F372A-F383W-02 Nucleotide Sequence
notes: vector DBN11773
With B2, for the setting “mesotrione 52.5 g ai/ha”, the Resistance evaluation result is reported as “Moderately”; the Scores was determined as 21; the “Grade 0 (classification and statistics of the grade of pesticide damage; number of plants)” value worked out at 7; the “Grade 1 (classification and statistics of the grade of pesticide damage; number of plants)” value was found to be 8. Under “mesotrione 52.5 g ai/ha”, the “Grade 2 (classification and statistics of the grade of pesticide damage; number of plants)” value is 1; the “Grade 3 (classification and statistics of the grade of pesticide damage; number of plants)” value is 0. Where the note is “mesotrione 105 g ai/ha”, the Resistance evaluation entry is “Moderately”; the Scores stood at 33; the “Grade 0 (classification and statistics of the grade of pesticide damage; number of plants)” value worked out at 5; the “Grade 1 (classification and statistics of the grade of pesticide damage; number of plants)” value is given as 6. For the setting “mesotrione 105 g ai/ha”, the “Grade 2 (classification and statistics of the grade of pesticide damage; number of plants)” value worked out at 5; the “Grade 3 (classification and statistics of the grade of pesticide damage; number of plants)” value is 0.

The values are drawn from US20250043302A1, “MUTATED HYDROXYPHENYLPYRUVATE DIOXYGENASE POLYPEPTIDE, AND CODING GENE AND USE THEREOF” (BEIJING DABEINONG BIOTECHNOLOGY CO., LTD., priority 2021, published 2025).
